In this experiment the target is T1, human Calmodulin-1 (human, UniProt P0DP23 1-149).
T1 construct: also called hCaM-1; hCaM
As to the kind of experiment: SPR. The following applies: both partners purified.

The values below come from PMC8464830 (Biomolecules, 2021).

B1: HIV-1 MA clade C (92BR025.8) construct with residue 1-109, lacking the C-terminal helix α5 (domain or fragment)
chain: MGARASILRGGKLDAWERIKLKPGGKKHYMMKHLVWASRELERFALDPGLLETSEGCKQIMKQLQPALQTGTKELISLHNTVATLYCVHEKIDVRDTKEALDKIKEEQN
B1: the binding result is given as “binds”.
